Measured values published in publication PMC3378326.

Experiments:
[1] = target: FGF1 (UniProt P05230); assay: SPR
[2] = target: FGF8b; assay: SPR

Sequence of FGF1 (P05230 whole entry): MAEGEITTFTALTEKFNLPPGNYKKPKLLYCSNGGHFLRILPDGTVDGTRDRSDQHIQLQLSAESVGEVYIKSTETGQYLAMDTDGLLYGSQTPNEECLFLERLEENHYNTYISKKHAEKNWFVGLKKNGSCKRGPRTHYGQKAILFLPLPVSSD

Substance	Kd [1] [nM]	Kd [2] [nM]
D1-D2-D3^ΔAB/linker (FGFR3c), naturally occurring isoform of FGFR3c lacking the AB/linker (domain or fragment)	310	367
D1-AB-D2-D3 (FGFR3c), full-length FGFR3c ectodomain (from UniProt P22607 23-375) (domain or fragment)		888
